# Measured values from patent US20110002929A1 (Ablynx, published 2011).
# Positions count from the first letter of the chain named.
# T1: mouse RANK-L (mouse, UniProt O35235 158-316, limits assumed)
# T1 construct: also called murine RANK-L
# T1 sequence (looked up): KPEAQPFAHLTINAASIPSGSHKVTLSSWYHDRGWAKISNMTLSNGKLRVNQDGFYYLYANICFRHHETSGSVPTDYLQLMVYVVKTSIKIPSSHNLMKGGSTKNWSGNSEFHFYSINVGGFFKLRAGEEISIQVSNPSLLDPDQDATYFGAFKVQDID
# T2: human RANK-L (human, UniProt O14788 140-317, limits assumed)
# T2 construct: Soluble protein, used coated, biotinylated or labelled in ELISA, AlphaScreen, FMAT and Biacore; also called hRANK-L; soluble human RANK-L
# T2 sequence (looked up): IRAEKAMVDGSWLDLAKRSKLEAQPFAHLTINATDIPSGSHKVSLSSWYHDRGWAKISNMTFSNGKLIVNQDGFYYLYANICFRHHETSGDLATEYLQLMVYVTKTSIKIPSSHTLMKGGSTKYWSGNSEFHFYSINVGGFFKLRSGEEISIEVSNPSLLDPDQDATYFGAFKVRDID
# B1: RANKL8 (VHH)
# VHH: EVQLVESGGGSVQPGGSLRLSCAASGGTFSRYAMGWFRQAPGKEREFVSAISVGGTYQYYVDSVKGRFTISRDNAESTVYLQMNSLKPEDTAVYYCAGDASPYGYLREYTATRFDYWGQGTQVTVSS
# notes: not shown: c-myc and His6 tags
# B2: RANKL11 (VHH)
# VHH: EVQLVESGGGLVQAGGSLRLSCAASGRTFSSKTMGWFRQPPGNEREFVAAITPTSRTTYYADSVKGRFTISRDNAKNTVSLQMNSLKFEDTAAYYCVAVRRYGSPPHDGSSYEYWGQGTQVTVSS
# notes: as for B1
# B3: RANKL12 (VHH)
# VHH: EVQLVESGGGWMQAGGSLRLSCAASGRTFTMAWFRQAPGKEREFVAAITGSGRSTYYTDSVKGRFTISRDNAKNTAYLQMKSLKPEDTAVYYCAGLRGLGLEYDSAKSYSYWGQGTQVTVSS
# notes: as for B1
# B4: RANKL13basic (VHH)
# VHH: EVQLVESGGGLVQPGGSLRLSCAASGRTFRSYPMGWFRQAPGKGREFVASITGSGGSTYYADSVKGRFTISRDNAKNTLYLQMNSLRPEDTAVYSCAAYIRPDTYLSRDYRKYDYWGQGTLVTVSS
# notes: Humanized variant of RANKL13; also called RANKL13humbasic
# B5: RANKL13hum1 (VHH)
# VHH: B4 VHH with R27F
# B6: RANKL13hum2 (VHH, name in Kabat numbering)
# VHH: B4 VHH with R30S
# B7: RANKL13hum3 (VHH, name in Kabat numbering)
# VHH: B4 VHH with A49S
# notes: also called RANL13hum3
# B8: RANKL13hum4 (VHH, name in Kabat numbering)
# VHH: B4 VHH with S95Y
# B9: RANKL18hum1 (VHH, name in Kabat numbering)
# VHH: EVQLVESGGGLVQPGGSLRLSCAASGFTFSRSAMGWFRQAPGKGREFVGFITGSGGTTYYGESVKGRFTISRDNAQNPVYLQMNSLRPEDTAVYYCGVYRRTYISSTYSESSEYDYWGQGTLVTVSS
# B10: RANKL18hum2 (VHH, name in Kabat numbering)
# VHH: B9 VHH with F27R, G49S
# B11: RANKL18hum5 (VHH)
# VHH: B9 VHH with F27R, G97A
# B12: RANKL18hum7 (VHH)
# VHH: B9 VHH with F27R, G61A, E62D, V79L, G97A
# B13: RANKL131 (VHH)
# chain: EVQLVESGGGLVQAGGSLRLSCAASGRTFRSYPMGWFRQAPGKEREFVASITGSGGSTYYADSVKGRFTISRDNAKNTVYLQMNSLRPEDTAVYSCAAYIRPDTYLSRDYRKYDYWGQGTQVTVSSGGGGSGGGSEVQLVESGGGLVQAGGSLRLSCAASGRTFRSYPMGWFRQAPGKEREFVASITGSGGSTYYADSVKGRFTISRDNAKNTVYLQMNSLRPEDTAVYSCAAYIRPDTYLSRDYRKYDYWGQGTQVTVSS
# notes: Bivalent Nanobody; also called RANKL13-9GS-RANKL13
# B14: RANKL133 (VHH)
# chain: EVQLVESGGGLVQAGGSLRLSCAASGRTFRSYPMGWFRQAPGKEREFVASITGSGGSTYYADSVKGRFTISRDNAKNTVYLQMNSLRPEDTAVYSCAAYIRPDTYLSRDYRKYDYWGQGTQVTVSSGGGGSGGGGSGGGGSGGGGSGGGGSGGGGSEVQLVESGGGLVQAGGSLRLSCAASGRTFRSYPMGWFRQAPGKEREFVASITGSGGSTYYADSVKGRFTISRDNAKNTVYLQMNSLRPEDTAVYSCAAYIRPDTYLSRDYRKYDYWGQGTQVTVS
# notes: Bivalent Nanobody; also called RANKL13-30GS-RANKL13
# B15: RANKL181biv (VHH)
# chain: EVQLVESGGGLVQAGGSLRLSCAASGRTFSRSAMGWFRQAPGKEREFVGFITGSGGTTYYGESVKGRFTISRDNAQNPVYLQMNSLKPEDTAVYYCGVYRRTYISSTYSESSEYDYWGQGTQVTVSSGGGGSGGGSEVQLVESGGGLVQAGGSLRLSCAASGRTFSRSAMGWFRQAPGKEREFVGFITGSGGTTYYGESVKGRFTISRDNAQNPVYLQMNSLKPEDTAVYYCGVYRRTYISSTYSESSEYDYWGQGTQVTVSS
# notes: Bivalent Nanobody; also called RANKL18-9GS-RANKL18
# B16: RANKL182biv (VHH)
# chain: EVQLVESGGGLVQAGGSLRLSCAASGRTFSRSAMGWFRQAPGKEREFVGFITGSGGTTYYGESVKGRFTISRDNAQNPVYLQMNSLKPEDTAVYYCGVYRRTYISSTYSESSEYDYWGQGTQVTVSSGGGGSGGGGSGGGGSGGGGSEVQLVESGGGLVQAGGSLRLSCAASGRTFSRSAMGWFRQAPGKEREFVGFITGSGGTTYYGESVKGRFTISRDNAQNPVYLQMNSLKPEDTAVYYCGVYRRTYISSTYSESSEYDYWGQGTQVTVSS
# notes: Bivalent Nanobody; also called RANKL18-20GS-RANKL18
# B17: RANKL183biv (VHH)
# chain: EVQLVESGGGLVQAGGSLRLSCAASGRTFSRSAMGWFRQAPGKEREFVGFITGSGGTTYYGESVKGRFTISRDNAQNPVYLQMNSLKPEDTAVYYCGVYRRTYISSTYSESSEYDYWGQGTQVTVSSGGGGSGGGGSGGGGSGGGGSGGGGSGGGGSEVQLVESGGGLVQAGGSLRLSCAASGRTFSRSAMGWFRQAPGKEREFVGFITGSGGTTYYGESVKGRFTISRDNAQNPVYLQMNSLKPEDTAVYYCGVYRRTYISSTYSESSEYDYWGQGTQVTVSS
# notes: Bivalent Nanobody; also called RANKL18-30GS-RANKL18
# B18: RANKL18hum6Bi_25 (VHH)
# chain: EVQLVESGGGLVQPGGSLRLSCAASGRTFSRSAMGWFRQAPGKGREFVGFITGSGGTTYYADSVKGRFTISRDNAQNPVYLQMNSLRPEDTAVYYCAVYRRTYISSTYSESSEYDYWGQGTLVTVSSGGGGSGGGGSGGGGSGGGGSGGGGSEVQLVESGGGLVQPGGSLRLSCAASGRTFSRSAMGWFRQAPGKGREFVGFITGSGGTTYYADSVKGRFTISRDNAQNPVYLQMNSLRPEDTAVYYCAVYRRTYISSTYSESSEYDYWGQGTLVTVSS
# notes: Bivalent humanized Nanobody; also called RANKL18Hum6-25GS-RANKL18Hum6
# B19: RANKL18hum6Bi_30 (VHH)
# chain: EVQLVESGGGLVQPGGSLRLSCAASGRTFSRSAMGWFRQAPGKGREFVGFITGSGGTTYYADSVKGRFTISRDNAQNPVYLQMNSLRPEDTAVYYCAVYRRTYISSTYSESSEYDYWGQGTLVTVSSGGGGSGGGGSGGGGSGGGGSGGGGSGGGGSEVQLVESGGGLVQPGGSLRLSCAASGRTFSRSAMGWFRQAPGKGREFVGFITGSGGTTYYADSVKGRFTISRDNAQNPVYLQMNSLRPEDTAVYYCAVYRRTYISSTYSESSEYDYWGQGTLVTVSS
# notes: Bivalent humanized Nanobody; also called RANKL18Hum6-30GS-RANKL18Hum6
# Target: T1, mouse RANK-L
# Test: ELISA, set-up as for human RANK-L
# Experimental: (§1) Therefore 2 μg/ml neutravidin was coated overnight at 4° C. The plates were washed 5 times with 300 μl PBS and then blocked with […] 1% casein/PBS for 2 hours at room temperature. […] After extensive washing with PBS, varying concentrations of Nanobodies starting from 500 nM to 160 pM diluted in 1% casein/PBS were added to the wells and the plates were incubated for 1 hour at room temperature. Bound Nanobodies were detected by subsequent incubations of a primary mouse anti-myc antibody and a secondary anti mouse-HRP conjugate (DAKO, Glostrup, Denmark) and using TMB-H2O2 (Pierce, Rockford, Ill., USA) substrate cocktail. The reaction was stopped with H₂SO₄ and the OD was read at 450 nm.
row,Binder,binding result
1,B1,no binding (tested: 500 nM to 160 pM)
2,B2,no binding (tested: 500 nM to 160 pM)
3,B3,no binding (tested: 500 nM to 160 pM)

# Target: T2, human RANK-L
# Test: ELISA (ED50), biotin-hRANK-L on neutravidin
# Experimental: as §1
row,Binder,EC50 [nM]
1,B1,0.652
2,B2,0.517
3,B3,0.399

# Target: T2, human RANK-L
# Test: AlphaScreen, biotin-hRANK-L / RANK-huFc beads
# Experimental: To this mixture, the RANK acceptor beads and the streptavidin donor beads were added and further incubated for 1 hour at room temperature. Fluorescence was measured by reading plates on the EnVision Multilabel Plate Reader (Perkin Elmer) using an excitation wavelength of 680 nm and an emission wavelength of 520 nm.
row,Binder,IC50 [nM]
1,B1,0.755
2,B2,1.17
3,B3,0.627

# Target: T2, human RANK-L
# Test: AlphaScreen, biotin-hRANK-L / RANK-huFc beads
# Remark: another data set of the same source
row,Binder,IC50 [nM]
1,B4,0.159
2,B5,0.123
3,B6,0.191
4,B7,0.196
5,B8,0.223
6,B9,3.15
7,B10,3.19
8,B11,0.253
9,B12,0.572

# Target: T2, human RANK-L
# Test: AlphaScreen, biotin-hRANK-L / RANK-huFc beads
# Remark: another data set of the same source
row,Binder,IC50 [nM]
1,B13,0.019
2,B14,0.026
3,B15,0.113
4,B16,0.089
5,B17,0.049
6,B18,0.1
7,B19,0.05

# Target: T2, human RANK-L
# Test: FMAT, ALEXA647-hRANK-L / RANK on HEK293T cells
row,Binder,IC50 [nM]
1,B13,0.023
2,B15,0.134
3,B16,0.076
4,B17,0.052
5,B18,0.038
6,B19,0.038

# Target: T2, human RANK-L
# Test: SPR Biacore 3000, hRANK-L on CM5, 100 nM Nanobody
# Experimental: (§2) Binding kinetics of the humanized versions of Nanobodu RANL13 were also analysed by Surface Plasmon Resonance (Biacore 3000). […] Nanobody binding was assessed at one concentration (100 nM). Each Nanobody was injected for 4 minutes at a flow rate of 45 μl/min to allow binding to chip-bound antigen. Next, binding buffer without Nanobody was sent over the chip at the same flow rate to allow spontaneous dissociation of bound Nanobody.
row,Binder,koff [s⁻¹]
1,B4,0.000189
2,B5,0.000145
3,B6,0.000232
4,B7,0.000174
5,B8,0.000204
6,B9,0.000236
7,B10,0.000173
8,B11,9.94e-05
9,B12,0.00027

# Target: T2, human RANK-L
# Test: SPR Biacore 3000, hRANK-L on CM5, 100 nM Nanobody; only indicative (one concentration)
# Experimental: as §2
Binder,Kd [nM],kon [M⁻¹ s⁻¹]
B4,0.214,885000
B5,0.106,1.37e+06
B6,0.88,264000
B7,0.264,659000
B8,0.538,379000
B9,1.56,151000
B10,2.73,63400
B11,0.232,429000
B12,1.5,
